Reference: US20250073239A1, “COMBINATION OF AN IMMUNOCYTOKINE COMPRISING IL-12 AND A KINASE INHIBITOR” (PHILOGEN S.P.A., priority 2022, published 2025)

Key:
[1] = rodents, cited from earlier work
[2] = humans, patients with cancer; cited from earlier work
[3] = system: MC-38 cells, derived from C57BL/6 murine colon adenocarcinoma cells; assay: Therapy experiments: tumour volume in MC-38 tumor-bearing mice; format: in vivo, C57BL/6 mice; details: on day 8, 11 and 14
Procedure: MC-38 cells, derived from C57BL/6 murine colon adenocarcinoma cells were cultured in DMEM medium supplemented with Fetal Bovine Serum (10%) and antibiotic-antimycotic (1%) following the supplier's protocol and kept in culture for no longer than 10 passages with a confluence lower than 90%. Eight-week-old female C57BL/6 mice were used for the experiment.
MC-38 cells were grown to 80% confluence and detached with Trypsin-EDTA 0.05%. Cells were washed, counted and re-suspended in HBSS to a final concentration of 1×10^7 cells ml^−1. Aliquots of 1×10^6 cells (100 μl of the suspension) were injected subcutaneously in the right flank of each animal. Tumor volume was determined with the following formula: (length×width^2×0.5) measured with a caliper.
Preparation of the tumor cells and tumor implantation have been done as described above in chapters 2.1 and 2.2.

[4] = Toxicity monitored by daily body weighing of MC-38 tumor-bearing mice; details: for weight loss: alone or with Ruxolitinib 75 mg/kg s.c., day 8, 11, 14
Procedure: When tumors reached an average of about 50-100 mm^3, MC-38 tumor-bearing mice were randomized, and different treatments were started. Eight different groups (4/5 mice per group) received the following treatments: • (i) i.v. vehicle on day 8, 11 and 14 after tumor implantation • (ii) s.c. Ruxolitinib (75 mg/kg) on day 8, 11 and 14 after tumor implantation • (iii) i.v. L19-IL12 (0.6 mg/kg) on day 8, 11 and 14 after tumor implantation • (iv) i.v. L19-IL12 (0.9 mg/kg) on day 8, 11 and 14 after tumor implantation • (v) i.v. L19-IL12 (1.2 mg/kg) on day 8, 11 and 14 after tumor implantation • (vi) s.c Ruxolitinib (75 mg/kg) and i.v. L19-IL12 (0.6 mg/kg) on day 8, 11 and 14 after tumor implantation • (vii) s.c. Ruxolitinib (75 mg/kg) and i.v. L19-IL12 (0.9 mg/kg) on day 8, 11 and 14 after tumor implantation • (viii) s.c. Ruxolitinib (75 mg/kg) and i.v. L19-IL12 (1.2 mg/kg) on day 8, 11 and 14 after tumor implantation
Ruxolitinib was always administered 10 minutes prior the subsequent administration of L19-IL12 at the three different dose levels.
Toxicity of the different treatments was monitored by daily body weighing and general appearance of the animals.

## N#CC[C@H](C1CCCC1)n1cc(-c2ncnc3[nH]ccc23)cn1 [Ruxolitinib]
[1]; after injection
  blood half-life: less than 1 hour
[1]
  time to complete wash-out from blood: ≤ 24 h

## recombinant human IL-12: recombinant human interleukin-12 cytokine tested in clinical trials in patients with cancer
[2]
  maximal tolerated dose: 0.5 μg/kg of body weight

B1: L19-IL12: fusion protein of the anti-EDB L19 antibody in single chain diabody format fused to single-chain murine IL-12 (SEQ ID NO 19) (protein)
chain: MWELEKDVYVVEVDWTPDAPGETVNLTCDTPEEDDITWTSDQRHGVIGSGKTLTITVKEFLDAGQYTCHKGGETLSHSHLLLHKKENGIWSTEILKNFKNKTFLKCEAPNYSGRFTCSWLVQRNMDLKFNIKSSSSSPDSRAVTCGMASLSAEKVTLDQRDYEKYSVSCQEDVTCPTAEETLPIELALEARQQNKYENYSTSFFIRDIIKPDPPKNLQMRPLKNSQVEVSWEYPDSWSTPHSYFSLKFFVRIQRKKEKMKETEEGCNQKGAFLVERTSTEVQCKGGNVCVQAQDRYYNSSCSKWACVPCRVRSGGGGSGGGGSGGGGSRVIPVSGPARCLSQSRNLLKTTDDMVKTAREKLKHYSCTAEDIDHEDITRDQTSTLKTCLPLELHKNESCLATRETSSTTRGSCLPPQKTSLMMTLCLGSIYEDLKMYQTEFQAINAALQNHNHQQIILDKGMLVAIDELMQSLNHNGETLRQKPPVGEADPYRVKMKLCILLHAFSTRVVTINRVMGYLSSAGSADGEVQLLESGGGLVQPGGSLRLSCAASGFTFSSFSMSWVRQAPGKGLEWVSSISGSSGTTYYADSVKGRFTISRDNSKNTLYLQMNSLRAEDTAVYYCAKPFPYFDYWGQGTLVTVSSGSSGGEIVLTQSPGTLSLSPGERATLSCRASQSVSSSFLAWYQQKPGQAPRLLIYYASSRATGIPDRFSGSGSGTDFTLTISRLEPEDFAVYYCQQTGRIPPTFGQGTKVEIKSSSSGSSSSGSSSSGEVQLLESGGGLVQPGGSLRLSCAASGFTFSSFSMSWVRQAPGKGLEWVSSISGSSGTTYYADSVKGRFTISRDNSKNTLYLQMNSLRAEDTAVYYCAKPFPYFDYWGQGTLVTVSSGSSGGEIVLTQSPGTLSLSPGERATLSCRASQSVSSSFLAWYQQKPGQAPRLLIYYASSRATGIPDRFSGSGSGTDFTLTISRLEPEDFAVYYCQQTGRIPPTFGQGTKVEIK
modifications: immunocytokine sequence
[3]; L19-IL12 0.6, 0.9 or […] i.v., alone or with Ruxolitinib 75 mg/kg s.c. 10 min before
  tumor growth (antitumor activity): effectively prevented tumor growth
[3]; high dose L19-IL12 2.4 or 3 mg/kg i.v., alone or with Ruxolitinib 75 mg/kg s.c.
  tumor growth (antitumor activity): effectively prevented tumor growth
[4]; L19-IL12 0.6 mg/kg i.v.
  weight loss: caused a weight loss
[4]; L19-IL12 0.9 mg/kg i.v.
  weight loss: more severe toxicity
[4]; L19-IL12 […] i.v.
  weight loss: more severe toxicity
[4]; high dose L19-IL12 2.4 or 3 mg/kg i.v.
  weight loss: > 15%
[4]; high dose L19-IL12 2.4 or 3 mg/kg monotherapy
  outcome of the weight loss for the animals: sacrifice of the mice for ethical reasons
